Results: publication PMC7810915 (Computational and Structural Biotechnology Journal, 2019)

Biological target: the molecule itself
Test: NMR relaxation

B1: Smad5 MH1 domain (wild type) (domain or fragment, Homo sapiens)
chain: GPSFTSPAVKRLLGWKQGDEEEKWAEKAVDALVKKLKKKKGAMEELEKALSSPGQPSKCVTIPRSLDGRLQVSHRKGLPHVIYCRVWRWPDLQSHHELKPLDICEFPFGSKQKEVCINPYHYKRVESPVLPP
In the case of B1, the Kd is reported as 8.3 ± 1.5 mM.
